Test results as given in US11419921B2, “Methods of treating neurological disorders” (EnClear Therapies, Inc., priority 2018, dated 2022).

Assays:
[1] = tested on: (GR)10; assay: Cleavage of (GR)10 by commercial immobilized trypsin (agarose resin) in PBS; assay type: biochemical; conditions: (GR)10 50 μM
Experimental: • Immobilized TPCK-trypsin on agarose resin; ThermoFisher Cat #20230 Lot #TA264999; Activity: 555 TAME units/mL of gel; the resin was washed with PBS • TPCK-trypsin; ThermoFisher Cat #20233 Lot #SB241185; Activity: 308 TAME units/mg of protein • NOTE: One TAME unit is equal to 1 μmole of TAME (p-toluenesulfonyl-L-arginine methyl ester in the presence of Ca2+) hydrolyzed/min at pH 8.2, 25° C. (One TAME unit=19.2 National Formulatory units=57.5 BAEE units
110 μL of 50 μM (GR)10 dipeptide repeats prepared in PBS was added to immobilized trypsin in 0.8 mL centrifuge columns and incubated for the prescribed time at room temperature with end-to-end mixing resin. Columns were spun down 1 minute at 1,000 Xg to recover digested GR dipeptides. Columns were washed with 110 μL of PBS to increase (GR)10 recovery. 100 μL of each samples were transferred to a new tube and 5 μL of 10% TFA followed by 300 μL of Dilution Solution were added. The reaction mixtures were analyzed by LC/MS to determine the concentration of GR repeats of different lengths.

[2] = 1 TAME unit = 1 μmole TAME hydrolyzed/min at pH 8.2, 25° C.; cited from earlier work
[3] = tested on: iCell® motor neurons; assay: Toxicity of (GR)10, untreated or protease-treated, on iCell motor neurons; assay type: cell-based; conditions: (GR)10 concentrations of 25, 50 and 100 μM
Experimental: 200 μM of (GR)10 were diluted in human cerebrospinal fluid (CSF) and 400 μL were applied to each immobilized proteases. The reaction was incubated 5 minutes at room temperature with end-to-end mixing. Columns were spun down 1 minute at 1,000 Xg to recover digested GR dipeptides. Columns were washed with 12 resin volumes of PBS. The procedure was repeated with 60 minutes digestion time. 100 μL of each samples were transferred to a clean tube, flash-frozen and subsequently used for LC/MS quantification of GR repeats of different lengths. The remaining 300 μL of each samples were flash-frozen and used to assess neuron toxicity.
300 μL of CSF were applied to each immobilized proteases and incubated 60 minutes at room temperature with end-to-end mixing. Columns were spun down 1 minute at 1,000 Xg to recover treated CSF. Samples were flash-frozen and subsequently used to test neuron toxicity.
This example describes the reduced toxicity of (GR)10 on in vitro neuronal cells by digestion of (GR)10 with proteases.

B1: Immobilized trypsin: Immobilized TPCK-trypsin on agarose resin; ThermoFisher Cat #20230 (protein, UniProt P00760 24-246, looked up)
Serine protease 1: IVGGYTCGANTVPYQVSLNSGYHFCGGSLINSQWVVSAAHCYKSGIQVRLGEDNINVVEGNEQFISASKSIVHPSYNSNTLNNDIMLIKLKSAASLNSRVASISLPTSCASAGTQCLISGWGNTKSSGTSYPDVLKCLKAPILSDSSCKSAYPGQITSNMFCAGYLEGGKDSCQGDSGGPVVCSGKLQGIVSWGSGCAQKNKPGVYTKVCNYVSWIKQTIASN
modifications: TPCK-treated, immobilized on agarose resin
[1]; 0.625 TAME Units, 0 min
  (GR)1 concentration: BLQ
  (GR)2 concentration: BLQ
  (GR)4 concentration: 0.1 µM
  (GR)6 concentration: BLQ
  (GR)8 concentration: 1.0 µM
  (GR)10 concentration: 68.4 µM
[1]; 0.625 TAME Units, 5 min
  (GR)1 concentration: 248.4 µM
  (GR)2 concentration: 114.9 µM
  (GR)4 concentration: 0.3 µM
  (GR)6 concentration: 0.1 µM
  (GR)8 concentration: BLQ
  (GR)10 concentration: 3.1 µM
[1]; 0.625 TAME Units, 10 min
  (GR)1 concentration: 307.0 µM
  (GR)2 concentration: 89.6 µM
  (GR)4 concentration: 0.2 µM
  (GR)6 concentration: BLQ
  (GR)8 concentration: BLQ
  (GR)10 concentration: 2.1 µM
[1]; 0.625 TAME Units, 30 min
  (GR)1 concentration: 411.7 µM
  (GR)2 concentration: 11.8 µM
  (GR)4 concentration: 0.1 µM
  (GR)6 concentration: BLQ
  (GR)8 concentration: BLQ
  (GR)10 concentration: 0.6 µM
[1]; 0.625 TAME Units, 60 min
  (GR)1 concentration: 465.4 µM
  (GR)2 concentration: 5.6 µM
  (GR)4 concentration: BLQ
  (GR)6 concentration: BLQ
  (GR)8 concentration: BLQ
  (GR)10 concentration: 1.0 µM
[1]; 0.625 TAME Units, 120 min
  (GR)1 concentration: 385.8 µM
  (GR)2 concentration: 1.0 µM
  (GR)4 concentration: BLQ
  (GR)6 concentration: BLQ
  (GR)8 concentration: BLQ
  (GR)10 concentration: 0.1 µM
[1]; 6.25 TAME Units, 0 min
  (GR)1 concentration: 0.2 µM
  (GR)2 concentration: 0.2 µM
  (GR)4 concentration: 0.1 µM
  (GR)6 concentration: BLQ
  (GR)8 concentration: BLQ
  (GR)10 concentration: 32.7 µM
[1]; 6.25 TAME Units, 5 min
  (GR)1 concentration: 391.0 µM
  (GR)2 concentration: 1.2 µM
  (GR)4 concentration: BLQ
  (GR)6 concentration: BLQ
  (GR)8 concentration: BLQ
  (GR)10 concentration: 0.9 µM
[1]; 6.25 TAME Units, 10 min
  (GR)1 concentration: 505.5 µM
  (GR)2 concentration: 3.8 µM
  (GR)4 concentration: 0.1 µM
  (GR)6 concentration: BLQ
  (GR)8 concentration: BLQ
  (GR)10 concentration: 1.6 µM
[1]; 6.25 TAME Units, 30 min
  (GR)1 concentration: 480.2 µM
  (GR)2 concentration: 0.2 µM
  (GR)4 concentration: BLQ
  (GR)6 concentration: BLQ
  (GR)8 concentration: BLQ
  (GR)10 concentration: 0.9 µM
[1]; 6.25 TAME Units, 60 min
  (GR)1 concentration: 409.6 µM
  (GR)2 concentration: 0.1 µM
  (GR)4 concentration: BLQ
  (GR)6 concentration: BLQ
  (GR)8 concentration: BLQ
  (GR)10 concentration: 0.2 µM
[1]; 6.25 TAME Units, 120 min
  (GR)1 concentration: 396.0 µM
  (GR)2 concentration: 0.2 µM
  (GR)4 concentration: BLQ
  (GR)6 concentration: 0.1 µM
  (GR)8 concentration: BLQ
  (GR)10 concentration: 0.1 µM
[2]
  Activity: 555 TAME units/mL of gel

B2: resins having immobilized clostripain: clostripain immobilized on agarose resin (protein, UniProt P09870 51-181; P09870 191-526, looked up)
Clostripain light chain: NKNQKVTIMYYCDADNNLEGSLLNDIEEMKTGYKDSPNLNLIALVDRSPRYSSDEKVLGEDFSDTRLYKIEHNKANRLDGKNEFPEISTTSKYEANMGDPEVLKKFIDYCKSNYEADKYVLIMANHGGGAR
Clostripain heavy chain: AICWDDSNLDKNGEADCLYMGEISDHLTEKQSVDLLAFDACLMGTAEVAYQYRPGNGGFSADTLVASSPVVWGPGFKYDKIFDRIKAGGGTNNEDDLTLGGKEQNFDPATITNEQLGALFVEEQRDSTHANGRYDQHLSFYDLKKAESVKRAIDNLAVNLSNENKKSEIEKLRGSGIHTDLMHYFDEYSEGEWVEYPYFDVYDLCEKINKSENFSSKTKDLASNAMNKLNEMIVYSFGDPSNNFKEGKNGLSIFLPNGDKKYSTYYTSTKIPHWTMQSWYNSIDTVKYGLNPYGKLSWCKDGQDPEINKVGNWFELLDSWFDKTNDVTGGVNHYQW
modifications: immobilized on agarose resin
[3]
  Effect of protease treatment of (GR)10 on (GR)10 toxicity: abrogation of (GR)10 toxicity
